According to patent publication US20180327500A1 (SYMPHOGEN A S, published 2018):

T1: Mouse blade 3
T1 construct: human/mouse chimera on transfected HEK293 cells; also called Mouse blade 3-IPT4
T1 MET ECD-SV5-GPI fusion: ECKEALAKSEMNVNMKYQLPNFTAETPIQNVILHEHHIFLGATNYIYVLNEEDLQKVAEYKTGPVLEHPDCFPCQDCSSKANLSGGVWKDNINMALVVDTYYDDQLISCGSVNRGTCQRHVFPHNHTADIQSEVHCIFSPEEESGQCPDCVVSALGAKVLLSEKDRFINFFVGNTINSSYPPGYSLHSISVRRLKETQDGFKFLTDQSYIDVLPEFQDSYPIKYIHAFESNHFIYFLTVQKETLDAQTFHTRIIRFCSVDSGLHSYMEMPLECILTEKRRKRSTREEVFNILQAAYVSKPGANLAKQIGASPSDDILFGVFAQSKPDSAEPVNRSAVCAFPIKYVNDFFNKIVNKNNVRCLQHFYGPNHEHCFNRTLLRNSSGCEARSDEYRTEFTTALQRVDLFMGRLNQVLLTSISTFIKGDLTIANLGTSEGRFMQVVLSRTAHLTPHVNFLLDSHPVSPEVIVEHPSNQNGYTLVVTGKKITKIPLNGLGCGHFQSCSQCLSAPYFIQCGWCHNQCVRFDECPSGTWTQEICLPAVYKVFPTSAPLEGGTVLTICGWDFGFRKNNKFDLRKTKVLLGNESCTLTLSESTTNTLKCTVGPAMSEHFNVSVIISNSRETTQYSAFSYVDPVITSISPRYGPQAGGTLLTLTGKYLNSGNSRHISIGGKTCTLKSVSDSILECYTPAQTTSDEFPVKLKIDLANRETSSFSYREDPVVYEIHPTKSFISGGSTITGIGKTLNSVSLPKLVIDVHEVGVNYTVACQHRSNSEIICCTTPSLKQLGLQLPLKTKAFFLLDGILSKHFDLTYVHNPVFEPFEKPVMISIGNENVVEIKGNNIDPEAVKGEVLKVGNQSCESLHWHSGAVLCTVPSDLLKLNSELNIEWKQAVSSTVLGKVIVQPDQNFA

T2: Mouse Blade 1-2
T2 construct: human/mouse chimera on transfected HEK293 cells; also called AA 25-162
T2 MET ECD-SV5-GPI fusion: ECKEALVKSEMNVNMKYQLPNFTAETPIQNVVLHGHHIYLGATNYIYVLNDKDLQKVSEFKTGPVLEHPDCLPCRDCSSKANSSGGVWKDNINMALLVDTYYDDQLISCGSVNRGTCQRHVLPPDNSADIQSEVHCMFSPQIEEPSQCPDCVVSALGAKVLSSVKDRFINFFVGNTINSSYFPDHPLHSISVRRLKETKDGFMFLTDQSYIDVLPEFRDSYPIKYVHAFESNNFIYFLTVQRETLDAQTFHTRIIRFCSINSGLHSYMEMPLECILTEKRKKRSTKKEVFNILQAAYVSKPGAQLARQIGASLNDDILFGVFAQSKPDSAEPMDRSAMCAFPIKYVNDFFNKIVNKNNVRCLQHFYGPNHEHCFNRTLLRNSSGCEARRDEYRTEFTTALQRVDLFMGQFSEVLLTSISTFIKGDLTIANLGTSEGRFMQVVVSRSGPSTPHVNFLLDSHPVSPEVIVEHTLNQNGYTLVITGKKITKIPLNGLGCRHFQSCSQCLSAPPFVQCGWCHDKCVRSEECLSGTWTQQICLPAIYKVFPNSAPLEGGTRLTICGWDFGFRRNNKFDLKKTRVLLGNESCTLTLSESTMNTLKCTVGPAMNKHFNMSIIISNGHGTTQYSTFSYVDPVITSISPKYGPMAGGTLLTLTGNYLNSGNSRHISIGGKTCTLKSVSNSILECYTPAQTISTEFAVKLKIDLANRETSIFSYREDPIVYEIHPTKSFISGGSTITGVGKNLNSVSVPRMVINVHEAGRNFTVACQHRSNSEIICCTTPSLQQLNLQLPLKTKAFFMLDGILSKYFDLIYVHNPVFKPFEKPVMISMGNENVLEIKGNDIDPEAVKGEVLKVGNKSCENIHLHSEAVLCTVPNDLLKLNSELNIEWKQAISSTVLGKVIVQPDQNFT


Assays:
[1] = molecular target: T3, His tagged human MET ECD (Sinobiological) (human, UniProt P08581 25-932); assay: SPR (Bio-Rad XPR-36); antibody captured on anti-human IgG Fc surface, MET ECD 25 to 1.56 nM, 1:1 Langmuir fit
T3 construct: Bought monovalent antigen; also called human MET antigen; not shown: His tag

Mouse blade 3 = molecular target: T1, Mouse blade 3; assay: flow cytometry on transfected HEK293 cells;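 note: antibodies applied at 50 µg/ml, binding called specific when fluorescence exceeds the mean signal on a negative control chicken or mouse MET construct plus four SD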
Experimental: (§1) Cut-off values defined as the average fluorescence signal of all antibodies tested at 50 μg/ml to the negative control chicken or mouse MET construct+four standard deviations were employed to discriminate background binding from specific binding for the domain exchange or blade exchange constructs.

Mouse Blade 1-2 = molecular target: T2, Mouse Blade 1-2; assay: flow cytometry on transfected HEK293 cells;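 note: antibodies applied at 50 µg/ml, binding called specific when fluorescence exceeds the mean signal on a negative control chicken or mouse MET construct plus four SD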
Experimental: as §1

Kd [1] | koff [1] | kon [1] | binding result (Mouse blade 3) | binding result (Mouse Blade 1-2) | Binder
0.055 nM | 1.1e-05 s⁻¹ | 190000 M⁻¹ s⁻¹ | no binding (tested: 50 µg/ml) |  | humanized antibody 9006 (antibody, human IgG1, kappa, V domains shown, also called Hu9006; hu9006) VH: QVQLVQSGSELKKPGASVKVSCKASGYTFTNFRMNWVKQAPGQGLKWMGWINTYTGEPTYVDDLKGRFVFSLDTSVSTAYLQISSLKAEDTAVYYCARKGIARAMDYWGQGTTVTVSS VL: DIVMTQSPDSLAVSLGERATINCKSSQSLLDSGNQKNYLAWYQQKPGQPPKLLIFGASTRESGVPDRFSGSGSGTDFTLTISSLQAEDVAVYYCQNDHSYPYTFGQGTKLEIKR
 |  |  |  | no binding (tested: 50 µg/ml) | humanized antibody 9338 (antibody, human IgG1, kappa, V domains shown, also called Hu9338; hu9338) VH: QVQLVQSGAEVKKPGSSVKVSCKASGYTFTSYWMHWVRQAPGQGLEWMGYINPSSGHIENNQKFKDRVTITADKSTSTAYMELSSLRSEDTAVYYCARGRFAYWGQGTLVTVSS VL: EIVLTQSPATLSLSPGERATLSCSASSSVSSGYLYWYQQKPGQAPRLLIYSTSNLASGIPARFSGSGSGTDFTLTISSLEPEDFAVYYCHQWSSYPFTFGSGTKLEIKR
